Results as given in US20060134087A1, “ITI-D1 Kunitz domain mutants as hNE inhibitors” (Dyax Corp., priority 1988, published 2006).

Target: T1, hNE (Homo sapiens, UniProt P08246)
T1 sequence (P08246 30-267): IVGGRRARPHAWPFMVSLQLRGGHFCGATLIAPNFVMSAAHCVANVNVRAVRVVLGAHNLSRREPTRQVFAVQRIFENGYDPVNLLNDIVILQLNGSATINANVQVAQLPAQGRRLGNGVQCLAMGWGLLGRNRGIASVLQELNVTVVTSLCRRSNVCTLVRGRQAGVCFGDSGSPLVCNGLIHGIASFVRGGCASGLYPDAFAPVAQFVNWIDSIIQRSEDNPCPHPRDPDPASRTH
Experiment: Resistance to oxidative inactivation by Chloramine-T, residual hNE-inhibition activity
Format: physicochemical
Conditions: 20 minutes at RT
Procedure: At the end of the incubation period, the oxidation reactions were quenched by adding methionine to a final concentration of 4 mM. After a further 10 minute incubation, the quenched reactions were diluted and assayed for residual inhibitor activity in our standard hNE-inhibition assay.
Inhibitors were incubated in the presence of Chloramine-T at the molar ratios indicated for 20 minutes at RT. Oxidation reactions were quenched by adding methionine to a final concentration of 4 mM. Residual hNE-inhibition activity remaining in the quenched reactions is shown as a percentage of the activity observed with no added oxidant.

B1: Secretory Leucocyte Protease Inhibitor (protein)
chain: SGKSFKAGVCPPKKSAQCLRYKKPECQSDWQCPGKKRCCPDTCGIKCLDPVDTPNPTRRKPGKCPVTYGQCLMLNPPNFCEMDGQCKRDLKCCMGMCGKSCVSPVKA
With B1 the “Percent Residual hNE-Inhibitory Activity” value (Molar Ratio CHL-T:Inhibitor 0) was 100%, the “Percent Residual hNE-Inhibitory Activity” value (Molar Ratio CHL-T:Inhibitor 0.29) was 93% and the “Percent Residual hNE-Inhibitory Activity” value (Molar Ratio CHL-T:Inhibitor 1.2) was 65%. The “Percent Residual hNE-Inhibitory Activity” value (Molar Ratio CHL-T:Inhibitor 2.4) was 48%, the “Percent Residual hNE-Inhibitory Activity” value (Molar Ratio CHL-T:Inhibitor 5.9) was 18% and the “Percent Residual hNE-Inhibitory Activity” value (Molar Ratio CHL-T:Inhibitor 12.) was 15%. The “Percent Residual hNE-Inhibitory Activity” value (Molar Ratio CHL-T:Inhibitor .59) was 82% and the “Percent Residual hNE-Inhibitory Activity” value (Molar Ratio CHL-T:Inhibitor .88) was 73%.
